Among the data in patent US20220229068A1, “DETECTION OF PROTEIN TO PROTEIN INTERACTIONS” (THE GOVERNING COUNCIL OF THE UNIVERSITY OF TORONTO, priority 2019, published 2022) are PLU mean values, retold here.

Common to all, as to test: SIMPL ELISA, bait-IN/prey-CIC
For experiment [1], the target named is T1, S100B (prey, CIC format) (human) (UniProt P04271).
T1 sequence (looked up): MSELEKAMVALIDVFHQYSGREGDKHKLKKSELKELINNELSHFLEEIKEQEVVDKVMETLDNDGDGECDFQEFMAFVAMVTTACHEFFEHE

Experiment [2] concerns the target CASP3 (prey, CIC format) (human) (UniProt P42574).
The target in experiment [3] is SMAD4 (prey, CIC format) (human) (UniProt Q13485).
Chain of SMAD4 (prey, CIC format) (human) (Q13485 whole entry): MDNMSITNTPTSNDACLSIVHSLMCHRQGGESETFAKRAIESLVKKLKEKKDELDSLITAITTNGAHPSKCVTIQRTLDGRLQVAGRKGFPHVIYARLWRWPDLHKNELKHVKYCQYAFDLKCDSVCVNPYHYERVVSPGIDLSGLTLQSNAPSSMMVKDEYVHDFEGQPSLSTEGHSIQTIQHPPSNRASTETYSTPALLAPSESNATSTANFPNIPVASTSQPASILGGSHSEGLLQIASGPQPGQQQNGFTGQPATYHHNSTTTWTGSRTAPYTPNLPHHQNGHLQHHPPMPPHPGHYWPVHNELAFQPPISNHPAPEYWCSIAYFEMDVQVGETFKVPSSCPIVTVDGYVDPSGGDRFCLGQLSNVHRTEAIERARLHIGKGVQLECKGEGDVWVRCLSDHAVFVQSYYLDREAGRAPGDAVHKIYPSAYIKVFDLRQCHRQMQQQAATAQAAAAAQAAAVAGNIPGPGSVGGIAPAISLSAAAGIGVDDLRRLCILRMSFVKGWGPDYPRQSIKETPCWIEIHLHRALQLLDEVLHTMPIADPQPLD
The target of experiment [4] is T2, MAP2K5 (prey, CIC format) (human) (UniProt Q13163).
T2 sequence (looked up): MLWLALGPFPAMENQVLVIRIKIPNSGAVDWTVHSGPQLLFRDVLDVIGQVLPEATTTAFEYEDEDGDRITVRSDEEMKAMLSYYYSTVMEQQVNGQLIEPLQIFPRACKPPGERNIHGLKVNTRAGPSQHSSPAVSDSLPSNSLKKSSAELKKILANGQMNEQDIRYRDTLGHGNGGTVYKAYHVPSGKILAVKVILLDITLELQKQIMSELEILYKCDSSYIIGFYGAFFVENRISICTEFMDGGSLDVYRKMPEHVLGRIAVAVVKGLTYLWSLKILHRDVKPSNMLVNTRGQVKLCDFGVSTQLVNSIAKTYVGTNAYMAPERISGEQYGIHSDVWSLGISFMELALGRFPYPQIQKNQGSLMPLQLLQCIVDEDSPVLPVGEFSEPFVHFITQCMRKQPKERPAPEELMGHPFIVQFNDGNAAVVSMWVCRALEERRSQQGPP

Experiment [5] deals with T3, ORC4 (prey, CIC format) (human) (UniProt O43929).
T3 sequence (looked up): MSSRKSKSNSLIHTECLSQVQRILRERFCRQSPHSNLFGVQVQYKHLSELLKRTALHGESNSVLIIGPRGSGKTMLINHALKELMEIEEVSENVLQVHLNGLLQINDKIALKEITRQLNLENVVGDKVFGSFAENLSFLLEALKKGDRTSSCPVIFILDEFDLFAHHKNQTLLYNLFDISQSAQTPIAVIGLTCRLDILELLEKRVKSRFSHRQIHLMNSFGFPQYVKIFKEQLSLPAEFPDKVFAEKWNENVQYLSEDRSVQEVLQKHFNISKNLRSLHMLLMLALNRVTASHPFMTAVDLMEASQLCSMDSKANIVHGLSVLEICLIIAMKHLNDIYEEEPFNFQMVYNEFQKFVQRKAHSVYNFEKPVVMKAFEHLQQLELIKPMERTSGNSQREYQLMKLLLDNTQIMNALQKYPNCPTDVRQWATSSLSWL

Experiment [6] has as its target CXCR2 (prey, CIC format) (human) (UniProt P25025).
In experiment [7] the target is SKP2 (prey, CIC format) (human) (UniProt Q13309).
Chain of SKP2 (prey, CIC format) (human) (Q13309 whole entry): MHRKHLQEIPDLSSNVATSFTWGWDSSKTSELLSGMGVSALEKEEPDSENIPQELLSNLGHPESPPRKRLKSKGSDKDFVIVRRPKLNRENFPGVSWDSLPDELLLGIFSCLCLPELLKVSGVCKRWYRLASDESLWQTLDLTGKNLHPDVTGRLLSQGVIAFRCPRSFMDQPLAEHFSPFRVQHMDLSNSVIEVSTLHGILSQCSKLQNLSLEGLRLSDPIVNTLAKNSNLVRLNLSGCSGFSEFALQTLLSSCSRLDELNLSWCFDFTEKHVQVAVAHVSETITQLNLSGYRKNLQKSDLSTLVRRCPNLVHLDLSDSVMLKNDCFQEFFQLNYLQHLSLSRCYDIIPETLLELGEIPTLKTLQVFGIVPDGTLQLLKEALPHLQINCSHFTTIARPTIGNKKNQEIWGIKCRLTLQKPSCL
Experiment [8] deals with BTRC (prey, CIC format) (human) (UniProt Q9Y297).
Chain of BTRC (prey, CIC format) (human) (Q9Y297 whole entry): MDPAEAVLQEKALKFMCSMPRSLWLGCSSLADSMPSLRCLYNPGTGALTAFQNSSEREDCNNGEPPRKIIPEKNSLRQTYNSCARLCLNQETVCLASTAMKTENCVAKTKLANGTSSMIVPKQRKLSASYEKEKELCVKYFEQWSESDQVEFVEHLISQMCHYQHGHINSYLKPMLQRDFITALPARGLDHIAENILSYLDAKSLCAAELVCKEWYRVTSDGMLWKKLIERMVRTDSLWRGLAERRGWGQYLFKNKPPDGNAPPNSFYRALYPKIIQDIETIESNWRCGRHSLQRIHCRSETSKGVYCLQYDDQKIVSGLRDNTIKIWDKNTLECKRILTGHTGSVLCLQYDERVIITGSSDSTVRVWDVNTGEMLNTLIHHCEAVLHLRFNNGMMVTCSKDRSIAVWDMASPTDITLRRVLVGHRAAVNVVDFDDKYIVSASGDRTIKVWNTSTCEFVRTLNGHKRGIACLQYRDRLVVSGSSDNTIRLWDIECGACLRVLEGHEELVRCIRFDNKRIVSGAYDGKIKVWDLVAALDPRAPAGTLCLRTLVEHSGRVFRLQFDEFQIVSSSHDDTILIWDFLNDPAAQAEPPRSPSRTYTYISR
For experiment [9], the target named is T4, CASP7 (prey, CIC format) (human) (UniProt P55210).
T4 sequence (looked up): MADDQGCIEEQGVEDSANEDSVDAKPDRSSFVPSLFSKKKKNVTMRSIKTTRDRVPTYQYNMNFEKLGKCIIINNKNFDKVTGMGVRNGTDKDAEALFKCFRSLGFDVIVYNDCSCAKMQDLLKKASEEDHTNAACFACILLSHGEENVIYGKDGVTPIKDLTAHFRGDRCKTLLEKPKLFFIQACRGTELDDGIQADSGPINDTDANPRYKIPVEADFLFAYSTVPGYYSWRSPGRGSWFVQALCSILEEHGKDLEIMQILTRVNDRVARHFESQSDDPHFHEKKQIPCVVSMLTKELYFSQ

The target in experiment [10] is RAN (prey, CIC format) (human) (UniProt P62826).
Experiment [11] addresses T5, PEX11B (prey, CIC format) (human) (UniProt O96011).
T5 sequence (looked up): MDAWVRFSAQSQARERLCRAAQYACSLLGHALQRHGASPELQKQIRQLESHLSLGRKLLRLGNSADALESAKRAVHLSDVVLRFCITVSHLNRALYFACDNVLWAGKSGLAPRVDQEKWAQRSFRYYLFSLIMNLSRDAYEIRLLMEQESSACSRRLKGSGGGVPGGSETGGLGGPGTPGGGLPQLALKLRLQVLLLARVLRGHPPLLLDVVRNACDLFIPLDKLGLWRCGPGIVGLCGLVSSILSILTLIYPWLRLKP

Experiment [12] has as its target PEX16 (prey, CIC format) (human) (UniProt Q9Y5Y5).
In experiment [13] the target is T6, BATF (prey, CIC format) (human) (UniProt Q16520).
T6 sequence (looked up): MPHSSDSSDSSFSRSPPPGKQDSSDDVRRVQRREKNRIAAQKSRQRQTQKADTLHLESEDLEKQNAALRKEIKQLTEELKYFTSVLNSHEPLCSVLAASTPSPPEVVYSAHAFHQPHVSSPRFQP

Experiment [14] addresses T7, NTF4 (prey, CIC format) (human) (UniProt P34130).
T7 sequence (looked up): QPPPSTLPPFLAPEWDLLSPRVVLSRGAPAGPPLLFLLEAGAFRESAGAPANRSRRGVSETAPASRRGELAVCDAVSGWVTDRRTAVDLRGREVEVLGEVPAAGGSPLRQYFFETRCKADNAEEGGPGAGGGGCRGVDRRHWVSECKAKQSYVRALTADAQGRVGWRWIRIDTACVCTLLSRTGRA

Experiment [15] has as its target T8, MAD1L1 (prey, CIC format) (human) (UniProt Q9Y6D9).
T8 sequence (looked up): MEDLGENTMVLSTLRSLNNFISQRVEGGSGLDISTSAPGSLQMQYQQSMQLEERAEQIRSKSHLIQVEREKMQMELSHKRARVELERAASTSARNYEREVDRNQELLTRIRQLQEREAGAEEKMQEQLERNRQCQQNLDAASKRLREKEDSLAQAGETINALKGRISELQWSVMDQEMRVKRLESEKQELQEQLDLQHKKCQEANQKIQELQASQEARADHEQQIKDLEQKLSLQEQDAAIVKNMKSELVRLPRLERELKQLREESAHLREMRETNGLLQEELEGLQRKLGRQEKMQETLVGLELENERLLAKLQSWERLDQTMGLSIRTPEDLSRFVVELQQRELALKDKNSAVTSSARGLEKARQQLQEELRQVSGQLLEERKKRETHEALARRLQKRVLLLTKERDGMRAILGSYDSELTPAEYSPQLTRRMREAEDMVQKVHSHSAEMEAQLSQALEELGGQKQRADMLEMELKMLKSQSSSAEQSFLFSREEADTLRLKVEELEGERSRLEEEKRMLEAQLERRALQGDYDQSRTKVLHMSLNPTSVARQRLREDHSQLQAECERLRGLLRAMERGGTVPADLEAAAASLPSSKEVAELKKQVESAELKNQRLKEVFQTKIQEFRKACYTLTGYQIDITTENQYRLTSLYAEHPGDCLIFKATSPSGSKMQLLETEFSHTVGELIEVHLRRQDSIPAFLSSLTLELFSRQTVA

Experiment [16] deals with NFE2L1 (prey, CIC format) (human) (UniProt Q14494).
Chain of NFE2L1 (prey, CIC format) (human) (Q14494 whole entry): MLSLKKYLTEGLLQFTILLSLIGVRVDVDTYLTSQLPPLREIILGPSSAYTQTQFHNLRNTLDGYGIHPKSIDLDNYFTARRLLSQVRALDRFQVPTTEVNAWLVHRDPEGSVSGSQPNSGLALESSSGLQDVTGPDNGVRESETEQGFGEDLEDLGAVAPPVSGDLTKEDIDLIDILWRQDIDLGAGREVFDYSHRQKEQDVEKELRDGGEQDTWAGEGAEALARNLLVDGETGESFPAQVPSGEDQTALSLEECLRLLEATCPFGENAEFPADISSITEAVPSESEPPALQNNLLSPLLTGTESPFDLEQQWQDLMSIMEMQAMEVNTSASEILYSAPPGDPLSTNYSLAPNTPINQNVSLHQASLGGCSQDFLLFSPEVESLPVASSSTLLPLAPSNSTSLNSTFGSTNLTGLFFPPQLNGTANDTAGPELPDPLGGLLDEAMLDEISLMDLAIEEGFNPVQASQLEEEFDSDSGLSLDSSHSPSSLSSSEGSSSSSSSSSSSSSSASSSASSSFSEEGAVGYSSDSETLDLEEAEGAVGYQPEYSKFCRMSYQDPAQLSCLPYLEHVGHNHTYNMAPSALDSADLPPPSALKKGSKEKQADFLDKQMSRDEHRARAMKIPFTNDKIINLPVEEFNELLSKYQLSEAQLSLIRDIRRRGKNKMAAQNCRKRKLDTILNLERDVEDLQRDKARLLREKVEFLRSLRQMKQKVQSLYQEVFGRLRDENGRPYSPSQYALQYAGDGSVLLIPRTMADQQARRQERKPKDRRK

Chain of CXCR2 (prey, CIC format) (human) (P25025 whole entry): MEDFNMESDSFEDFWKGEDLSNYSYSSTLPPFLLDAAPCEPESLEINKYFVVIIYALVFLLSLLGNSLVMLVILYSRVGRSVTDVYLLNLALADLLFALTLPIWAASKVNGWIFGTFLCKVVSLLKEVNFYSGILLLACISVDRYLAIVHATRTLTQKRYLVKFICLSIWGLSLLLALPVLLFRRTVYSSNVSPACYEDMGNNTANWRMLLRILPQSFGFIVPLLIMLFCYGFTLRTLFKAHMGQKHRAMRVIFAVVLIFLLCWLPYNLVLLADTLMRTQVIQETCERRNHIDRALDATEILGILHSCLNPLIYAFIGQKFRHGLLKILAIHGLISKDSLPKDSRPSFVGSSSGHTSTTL
Chain of S100A1 (bait, IN format) (P23297 whole entry): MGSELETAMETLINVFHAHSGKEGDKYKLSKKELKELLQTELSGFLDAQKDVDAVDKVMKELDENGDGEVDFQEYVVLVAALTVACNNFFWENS
Chain of PEX16 (prey, CIC format) (human) (Q9Y5Y5 whole entry): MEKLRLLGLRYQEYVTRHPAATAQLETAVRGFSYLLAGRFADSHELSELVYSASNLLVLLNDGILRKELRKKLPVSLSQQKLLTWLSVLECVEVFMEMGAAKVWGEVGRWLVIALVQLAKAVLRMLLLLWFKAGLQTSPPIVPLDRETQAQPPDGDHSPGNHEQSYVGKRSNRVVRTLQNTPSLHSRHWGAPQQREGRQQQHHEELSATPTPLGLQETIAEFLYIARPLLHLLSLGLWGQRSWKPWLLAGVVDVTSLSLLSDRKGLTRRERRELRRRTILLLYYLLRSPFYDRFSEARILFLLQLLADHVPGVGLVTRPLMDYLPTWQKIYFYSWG
Chain of RCC1 (bait, IN format) (P18754 whole entry): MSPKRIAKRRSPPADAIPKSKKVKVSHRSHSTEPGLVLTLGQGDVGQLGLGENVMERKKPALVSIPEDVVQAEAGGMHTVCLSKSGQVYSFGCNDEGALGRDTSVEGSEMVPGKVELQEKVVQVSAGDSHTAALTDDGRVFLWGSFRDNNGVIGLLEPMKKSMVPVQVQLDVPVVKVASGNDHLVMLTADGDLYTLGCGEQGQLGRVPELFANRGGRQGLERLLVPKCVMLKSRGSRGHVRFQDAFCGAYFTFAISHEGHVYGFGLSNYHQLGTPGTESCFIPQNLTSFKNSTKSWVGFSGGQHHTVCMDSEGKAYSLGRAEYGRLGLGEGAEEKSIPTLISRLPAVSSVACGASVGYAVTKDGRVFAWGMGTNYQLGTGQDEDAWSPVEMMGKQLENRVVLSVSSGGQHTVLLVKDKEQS
Chain of CASP3 (prey, CIC format) (human) (P42574 whole entry): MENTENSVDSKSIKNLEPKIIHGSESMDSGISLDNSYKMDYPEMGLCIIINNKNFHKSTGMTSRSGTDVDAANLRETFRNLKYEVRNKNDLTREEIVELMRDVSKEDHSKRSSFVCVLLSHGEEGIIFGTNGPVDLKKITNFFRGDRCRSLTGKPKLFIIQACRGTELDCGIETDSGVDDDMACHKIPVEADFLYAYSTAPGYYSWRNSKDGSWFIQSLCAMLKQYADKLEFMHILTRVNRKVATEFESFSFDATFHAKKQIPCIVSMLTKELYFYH

Consider “S100A1 (bait, IN format) (from UniProt P23297 1-94)”, for which the figures for the PLU mean in experiment [1] and in experiment [2] were 0.822 and 0.158, respectively.
In the case of “CXCL1 (bait, IN format) (from UniProt P09341 35-107) (ligand)”, the PLU mean in experiment [3] stood at 0.101; in experiment [4] it was 0.27; in experiment [5] it was 0.103; in [6] it was 0.178.
Take “SKP1A (bait, IN format) (from UniProt P63208 1-163)”: the PLU mean in experiment [7] was determined as 0.376; in experiment [6] it was 0.107; in experiment [8], 1.26.
As for “RCC1 (bait, IN format) (from UniProt P18754 1-421)”, the PLU mean in experiment [9] came out at 0.125; in experiment [10] it was 0.748.
Regarding “PEX19 (bait, IN format) (from UniProt P40855 1-299)”, the values for the PLU mean in [11], in experiment [12] and in experiment [13] were 1.18, 1.09 and 0.154, respectively.
On to “MAD2L1 (bait, IN format) (from UniProt Q13257 1-205)”, for which the PLU mean was determined as 0.133 in [14], 2.52 in experiment [15] and 0.0819 in [16].
